Our source for the response values is article PMC12691273.

B1: chicken forkhead box O1 (FOXO1) wild-type [chicken] / Ran protein [chicken (endogenous in granulosa cells)] (parent)
chain 1: MAEAPQLVDIDPDFEPLPRPRSCTWPLPRPEFNPPSSATSSPAPSCGGQPDGAAAAGAAVAVAASGALSADFISNLCLVEESEDFALPPAAAAPPESAACRCGDFSAPEAGCRLHPPGPPPVPPVPPAVAALSPGPVAGQPRKSSSSRRNAWGNLSYADLITKAIESSPEKRLTLSQIYEWMVKSVPYFKDKGDSNSSAGWKNSIRHNLSLHSKFIRVQNEGTGKSSWWMLNPEGGKSGKSPRRRAASMDNNSKFAKSRGRAAKKKASLQSGQEGNGDSPGSQFSKWPASPSSHSNDDFDNWSTFRPRTSSNASTISGRLSPILPEQDDLGDGDVHSMVYPSSATKMTSTLPSLSEMSSSENMENLLDNLNLLSPNTSMTVSTQSSSAALMQQTPGYSFASSTTSICSPNPDYRKFTYAQASMNSLPQIPMQTLQDSKSSYGSMSQFNCPAGLLKELLTSDSPPHNDILASVDTGVSQAGGRALGQGVLMVTNSVMPTYGNQPPHNKMMNPNARPHQGHNQPTPAVNGRALSHTVNPMSHTSCLNRLSTVKTSLQVPMSHQMQMNAMNPYAPVNSCNGYGRVGIVSLHQEKLPSDLDDMLIERLDCDMESIIRNDLMDGETLDFNFDSVLPNQSFQHSVKTTTHSWVSG
chain 2: not shown

Variants of B1 are the subject of this experiment. Put plainly: co-immunoprecipitation (IP FOXO1, WB Ran), band quantification. The note with it: with Ran protein [chicken (endogenous in granulosa cells)].
The mark [1] stands for this setting: with 740-Y-P, n = 3, read off a plot.
[2] abbreviates: with Ly294002, n = 3, read off a plot.

With chain 1 S311A, the response by setting is: under setting [1], 1.3; under setting [2], 0.33.

In the case of chain 1 S248A, the response under setting [1] came out at 1.2 and the response under setting [2] worked out at 0.28.
